Reference: the supplement of paper PMC7877785
± gives the uncertainty stated by the source.

Assay: self-splicing fitness, log relative to wild type (ln ratio); higher = more splicing; Tetrahymena group I intron in knt gene, E. coli kanamycin selection, DiMSum; sequences stand for … in CUCUCU…GGAGGGAAAAGUUAUCAGGCAUGCACCUGGUAGCUAGUCUUUAAACCAAUAGAUUGCAUCGGUUUAAAAGGCAAGACCGUCAAAUUGCGGGAAAGGGGUCAACAGCCGUUCAGUACCAAGUCUCAGGGGAAACUUUGAGAUGGCCUUGCAAAGGGUAUGGUAAUAAGCUGACGGACAUGGUCCUAACCACGCAGCCAAGUCCUAAGUCAACAGAUCUUCUGUUGAUAUGGAUGCAGUUCACAGACUAAAUGUCGGUCGGGGAAGAUGUAUUCUUCUCAUAAGAUAUAGUCGGACCUCUCCUUAAUGGGAGCUAGCGGAUGAAGUGAUGCAACACUGGAGCCGCUGGGAACUAAUUUGUAUGCGAAAGUAUAUUGAUUAGUUUUGGAGUACUCGUGGUCG
In short: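 Six replicate transformations of E. coli BL21(DE3) with a pET-22b(+) library were grown overnight at 37°C or 30°C. The library randomised all eight P1ex-region intron nucleotides, the intron lying in the knt kanamycin-resistance gene, and plates were LB agar with or without 25 μg/mL kanamycin plus 100 μg/mL carbenicillin, 50 μM IPTG and 0.2% rhamnose. Pooled colonies were amplicon-sequenced on an Illumina HiSeq 2500, and fitness is the DiMSum error-weighted combination of wild-type-normalised replicate fold changes, kanamycin versus none.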

Row | Sequence | self-splicing fitness (ln) (30 °C) | self-splicing fitness (ln) (37 °C)
1 | CAUCAGCAAUAUUACGCAGA | -2.69 ± 0.21 | -2.86 ± 0.31
2 | CGACAGCAAUAUUACGUCUA | -0.367 ± 0.052 | 0.0477 ± 0.061
3 | CCUGAGCAAUAUUACGUUUG | -3.6 ± 0.22 | -2.21 ± 0.18
4 | CCAAAGCAAUAUUACGCAAA | -3.41 ± 0.25 | -1.72 ± 0.17
5 | GCUCAGCAAUAUUACGGUAA | -1.52 ± 0.13 | -0.551 ± 0.11
6 | GACCAGCAAUAUUACGCCAG | -3.98 ± 0.28 | -0.652 ± 0.19
7 | GCUGAGCAAUAUUACGGUAC | -2.15 ± 0.22 | -2.77 ± 0.29
8 | AUCCAGCAAUAUUACGUGAC | -1.03 ± 0.077 | -0.702 ± 0.11
9 | CUACAGCAAUAUUACGACUC | -4.35 ± 0.22 | -2.7 ± 0.24
10 | AAAAAGCAAUAUUACGAUGG | -2.81 ± 0.12 | -0.923 ± 0.11
11 | CAUCAGCAAUAUUACGCUAA | -2.1 ± 0.17 | -1.69 ± 0.16
12 | UACGAGCAAUAUUACGCAGG | -2.88 ± 0.21 | -2.64 ± 0.22
13 | CUUGAGCAAUAUUACGGCUA |  | -1.11 ± 0.42
14 | GAAGAGCAAUAUUACGUCCG | -3.48 ± 0.39 | 
15 | UCGCAGCAAUAUUACGUUGC |  | -4.15 ± 0.42
16 | ACAAAGCAAUAUUACGUACU | -0.16 ± 0.049 | -0.0261 ± 0.072
17 | GUGUAGCAAUAUUACGGACA | -0.685 ± 0.15 | -1.11 ± 0.18
18 | CAGUAGCAAUAUUACGGGUC | -3.88 ± 0.37 | -1.32 ± 0.24
19 | UUGCAGCAAUAUUACGCAAC |  | -2.11 ± 0.22
20 | UAAUAGCAAUAUUACGUCUU | -3.1 ± 0.17 | -1.1 ± 0.11
21 | CAUAAGCAAUAUUACGUGAA | -3.45 ± 0.2 | -2.14 ± 0.18
22 | GCGAAGCAAUAUUACGCCGG | -1.91 ± 0.47 | -0.944 ± 0.47
23 | CUAGAGCAAUAUUACGACGC |  | -0.974 ± 0.32
24 | AACUAGCAAUAUUACGUAUG | -3.11 ± 0.11 | -1.22 ± 0.11
25 | GCUAAGCAAUAUUACGAAAC | -1.17 ± 0.14 | -0.452 ± 0.2

Row | Sequence | self-splicing fitness (ln) (30 °C) | self-splicing fitness (ln) (37 °C)
26 | GACGAGCAAUAUUACGACUG | -2.47 ± 0.21 | -0.443 ± 0.25
27 | ACGAAGCAAUAUUACGGCGC | -0.589 ± 0.086 | -0.278 ± 0.12
28 | CCGAAGCAAUAUUACGCGCA | -2.85 ± 0.28 | -1.95 ± 0.21
29 | ACGUAGCAAUAUUACGUGAU | -3.19 ± 0.14 | -1.63 ± 0.12
30 | GUGCAGCAAUAUUACGAAGU | -1.74 ± 0.14 | -0.554 ± 0.17
31 | ACACAGCAAUAUUACGUACA | -1.05 ± 0.059 | -0.954 ± 0.068
32 | UUAUAGCAAUAUUACGGGGA | -1.89 ± 0.13 | -1.38 ± 0.15
33 | CUAAAGCAAUAUUACGGACG | 0.255 ± 0.084 | -0.189 ± 0.092
34 | GGCAAGCAAUAUUACGACUA | -0.26 ± 0.13 | 0.336 ± 0.14
35 | GGAGAGCAAUAUUACGCUUC |  | -1.31 ± 0.43
36 | CCAUAGCAAUAUUACGCAAC | -2.54 ± 0.28 | 
37 | GGUAAGCAAUAUUACGCCGG | -3.09 ± 0.47 | -1.93 ± 0.47
38 | UCCCAGCAAUAUUACGGUAU | -1.24 ± 0.059 | -0.809 ± 0.08
39 | UAGAAGCAAUAUUACGACUU | -0.772 ± 0.11 | -0.183 ± 0.17
40 | CCGAAGCAAUAUUACGCAGC | -3.49 ± 0.23 | -2.36 ± 0.37
41 | AUUUAGCAAUAUUACGGCAA | -1.05 ± 0.16 | -0.726 ± 0.17
42 | GCCAAGCAAUAUUACGUGCU | -3.04 ± 0.11 | -1.56 ± 0.092
43 | UGGUAGCAAUAUUACGCGAA | -0.913 ± 0.11 | -0.833 ± 0.11
44 | ACCUAGCAAUAUUACGCCGU | -0.801 ± 0.083 | -0.776 ± 0.11
45 | CGAAAGCAAUAUUACGGGGA | -3.09 ± 0.31 | -1.85 ± 0.2
46 | GUGCAGCAAUAUUACGAUGG | -3.54 ± 0.37 | -3.15 ± 0.47
47 | GUUGAGCAAUAUUACGUGUU | -3.15 ± 0.25 | -2.29 ± 0.3
48 | ACUCAGCAAUAUUACGCGAU | -3.34 ± 0.16 | -2.18 ± 0.2
49 | GGGAAGCAAUAUUACGUGGA | -2 ± 0.17 | -2.34 ± 0.29
50 | AAUCAGCAAUAUUACGCUUA | -0.484 ± 0.072 | 0.347 ± 0.098

Row | Sequence | self-splicing fitness (ln) (30 °C) | self-splicing fitness (ln) (37 °C)
51 | CGGUAGCAAUAUUACGGUGG | -0.519 ± 0.092 | -0.124 ± 0.12
52 | UCGGAGCAAUAUUACGCGAG | -3.29 ± 0.45 | -1.64 ± 0.27
53 | AGUAAGCAAUAUUACGCCAU | -2.81 ± 0.2 | -1.93 ± 0.22
54 | UCGUAGCAAUAUUACGCGCU | -2.31 ± 0.19 | -1.78 ± 0.22
55 | CCCCAGCAAUAUUACGAGCG | -4.16 ± 0.24 | -2.62 ± 0.23
56 | CCUAAGCAAUAUUACGUUCU | -2.57 ± 0.16 | -3.16 ± 0.34
57 | UGCCAGCAAUAUUACGCUAC | -3.47 ± 0.16 | -2.78 ± 0.2
58 | ACCUAGCAAUAUUACGUUGA | -1.98 ± 0.087 | -1.54 ± 0.098
59 | AGUAAGCAAUAUUACGUACU | -2.29 ± 0.12 | -1.76 ± 0.18
60 | UAGCAGCAAUAUUACGGCCA | 0.54 ± 0.1 | 0.33 ± 0.16
61 | AGGAAGCAAUAUUACGAUAU | -3.48 ± 0.19 | -2.5 ± 0.12
62 | UGCAAGCAAUAUUACGUGGA | -2.88 ± 0.17 | -1.36 ± 0.11
63 | ACCUAGCAAUAUUACGAAAG | -2.49 ± 0.11 | -2.2 ± 0.13
64 | ACCUAGCAAUAUUACGAUCC | -2.35 ± 0.17 | -1.15 ± 0.2
65 | UCGAAGCAAUAUUACGACGA | -0.904 ± 0.12 | -0.374 ± 0.11
66 | GCUUAGCAAUAUUACGAGGA | -0.769 ± 0.11 | -0.781 ± 0.1
67 | ACUGAGCAAUAUUACGCAGA | -2.38 ± 0.14 | -1.25 ± 0.1
68 | UAUGAGCAAUAUUACGAUUC |  | -1.6 ± 0.45
69 | AGUUAGCAAUAUUACGACGC | -0.0216 ± 0.11 | 0.486 ± 0.13
70 | UCGCAGCAAUAUUACGAAAG |  | -2.04 ± 0.36
71 | CCCGAGCAAUAUUACGACCC |  | -0.219 ± 0.47
72 | CGGCAGCAAUAUUACGCGAA | -2.67 ± 0.13 | -1.68 ± 0.15
73 | ACCUAGCAAUAUUACGGCUC | -0.922 ± 0.1 | -0.468 ± 0.14
74 | GGCUAGCAAUAUUACGCUCU | -2.35 ± 0.31 | -0.975 ± 0.19
75 | AUCAAGCAAUAUUACGUGGC | -4.3 ± 0.37 | -3.52 ± 0.35

Row | Sequence | self-splicing fitness (ln) (30 °C) | self-splicing fitness (ln) (37 °C)
76 | CGUUAGCAAUAUUACGUGUG | -0.838 ± 0.062 | -1.12 ± 0.08
77 | UCUGAGCAAUAUUACGCUCA | -2.29 ± 0.24 | -2.09 ± 0.28
78 | GCCAAGCAAUAUUACGGGUC | -3.34 ± 0.18 | -2.8 ± 0.27
79 | AACCAGCAAUAUUACGGAUG | -0.77 ± 0.058 | -0.508 ± 0.072
80 | GCACAGCAAUAUUACGGUCU | -0.685 ± 0.042 | 0.63 ± 0.06
81 | UCCCAGCAAUAUUACGAGUG | -3.66 ± 0.18 | -1.79 ± 0.13
82 | UAUUAGCAAUAUUACGUGAA | -2.17 ± 0.13 | -1.87 ± 0.15
83 | AGGAAGCAAUAUUACGCGUG | -1.49 ± 0.072 | -0.951 ± 0.092
84 | GCAUAGCAAUAUUACGAAAG | -2.72 ± 0.2 | -2.69 ± 0.24
85 | GGGAAGCAAUAUUACGGACU | -1.99 ± 0.17 | -0.24 ± 0.19
86 | AUGCAGCAAUAUUACGACAG | -0.0726 ± 0.086 | -0.339 ± 0.16
87 | CGGAAGCAAUAUUACGACUG | -2.02 ± 0.28 | -1.12 ± 0.23
88 | AACUAGCAAUAUUACGAGAC | -1.96 ± 0.44 | 
89 | UCUCAGCAAUAUUACGCUAC | -3.11 ± 0.35 | -2.14 ± 0.41
90 | CAAGAGCAAUAUUACGGGAG | -2.35 ± 0.11 | -1.8 ± 0.12
91 | ACGAAGCAAUAUUACGCCUG | -0.445 ± 0.095 | 0.217 ± 0.12
92 | GGCUAGCAAUAUUACGUAAC | -0.594 ± 0.083 | -0.442 ± 0.11
93 | CUGCAGCAAUAUUACGGACC | -5.3 ± 0.36 | -2.18 ± 0.31
94 | AAUCAGCAAUAUUACGAAUG | -0.581 ± 0.069 | -0.488 ± 0.12
95 | GUUUAGCAAUAUUACGGAUG | -3.5 ± 0.3 | -1.57 ± 0.22
96 | AAGGAGCAAUAUUACGGUCC | -2.13 ± 0.18 | -2.03 ± 0.27
97 | CCCUAGCAAUAUUACGCCCG | -3.81 ± 0.37 | -2.12 ± 0.37
98 | AAUCAGCAAUAUUACGUUAC | -2.78 ± 0.13 | -1.08 ± 0.1
